The values below come from patent US20110217291A1.

Assay [1] deals with human IgG1 antibody (Lambda from human myeloma plasma, Sigma-Aldrich) (human). The assay can be described thus: SPR (Biacore), IgG1 immobilized at 485 RU, receptor as analyte.
Assay [2] concerns the target IgG of IgG Sepharose 6 Fast Flow resin (GE Healthcare). The assay can be described thus: batch binding of 293F conditioned media to IgG Sepharose, Western blot quantitation, n=2.
For assay [3], the target named is human IgG1 antibody (Lambda from human myeloma plasma, Sigma-Aldrich) (human). The experiment in a line: SPR (Biacore 3000), IgG1 immobilized at 458 RU, receptor as analyte, 1:1 model.
For assay [4] the target is unchanged. The assay can be described thus: SPR (Biacore 3000), steady state, IgG1 immobilized at 1013 RU, receptor as analyte. (In general: SPR reads the build-up and loss of mass on a sensor chip optically.)
The target in assay [5] is IgG of IgG Sepharose 6 Fast Flow resin (GE Healthcare). The assay can be described thus: IgG-Sepharose column, purified protein, Western blot. For orientation: Immunoblotting shows a protein as a band on a membrane.
Assay [6] shares this target. The experiment in a line: IgG-Sepharose column, one-day conditioned media of CHO cells at 37° C., Western blot.
For assay [7] the target is unchanged. The assay can be described thus: IgG-Sepharose column, 24 h CHO conditioned media, Western blot.

Sequence of untagged recombinant soluble human FcγRIA (P12314 16-282): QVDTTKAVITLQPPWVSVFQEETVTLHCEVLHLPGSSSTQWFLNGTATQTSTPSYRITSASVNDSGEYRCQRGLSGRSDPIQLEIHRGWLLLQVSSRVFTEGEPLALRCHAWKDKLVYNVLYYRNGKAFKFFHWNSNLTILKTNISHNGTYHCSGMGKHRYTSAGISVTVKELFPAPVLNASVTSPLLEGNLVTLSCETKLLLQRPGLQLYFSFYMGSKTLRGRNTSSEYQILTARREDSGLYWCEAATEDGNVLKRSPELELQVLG
Sequence of FcγRIA-CH6 (extracellular domain of human FcγRIA with a C-terminal six His tag) (P12314 other isoform, or with tags, fused parts or gaps): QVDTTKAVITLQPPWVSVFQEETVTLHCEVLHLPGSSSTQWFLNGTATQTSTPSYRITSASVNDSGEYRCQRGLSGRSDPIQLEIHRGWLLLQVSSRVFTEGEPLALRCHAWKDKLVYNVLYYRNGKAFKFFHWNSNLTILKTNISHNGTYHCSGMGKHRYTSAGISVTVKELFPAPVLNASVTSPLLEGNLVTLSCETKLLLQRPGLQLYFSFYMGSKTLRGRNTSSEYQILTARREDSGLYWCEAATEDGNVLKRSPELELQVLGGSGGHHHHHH
Sequence of aggregated FcγRIA (purified soluble FcγRIA incubated at 37° C.) (P12314 16-282): as the sequence (P12314 16-282) above
Sequence of FcγRIIIA-CH6 (soluble monomeric human FcγRIIIA extracellular domain with C-terminal His6 tag) (P08637 other isoform, or with tags, fused parts or gaps): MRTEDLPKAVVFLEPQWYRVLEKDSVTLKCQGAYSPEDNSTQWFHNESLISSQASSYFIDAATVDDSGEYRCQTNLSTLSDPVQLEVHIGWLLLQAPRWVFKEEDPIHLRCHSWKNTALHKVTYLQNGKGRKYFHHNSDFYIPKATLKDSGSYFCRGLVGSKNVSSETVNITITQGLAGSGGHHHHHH

As for “FcγRIA-CH6 (extracellular domain of human FcγRIA with a C-terminal six His tag) (from UniProt P12314 16-282) (receptor)”, in assay [1], the Kd is 0.17 nM, the koff is 0.00046 s⁻¹ and the kon was 2.8e+06 M⁻¹ s⁻¹. In assay [2], this substance came in with a percent of total expressed in IgG Sepharose flow-through (aggregate amount) of 66% and a percent of total expressed recovered from IgG resin of 21%. In assay [3], this substance returned a Kd of 0.17 nM, a koff of 0.00046 s⁻¹ and a kon of 2.8e+06 M⁻¹ s⁻¹.
Regarding “FcγRIIA-CH6 (soluble monomeric human FcγRIIA extracellular domain with C-terminal His6 tag) (from UniProt P12318 34-212) (receptor)”, the Kd in assay [4] came out at 1900 nM. That is a single-digit micromolar value.
With “FcγRIIIA-CH6 (soluble monomeric human FcγRIIIA extracellular domain with C-terminal His6 tag) (from UniProt P08637 18-195) (receptor)”, in assay [4], the Kd came out at 630 nM.
Turning to “aggregated FcγRIA (purified soluble FcγRIA incubated at 37° C.) (from UniProt P12314 16-282) (receptor)”, in assay [5], the percent of total in bound fraction was found to be 4% and the percent of total in unbound wash fraction turned out to be 96%.
As to “untagged recombinant soluble human FcγRIA (from UniProt P12314 16-282) (receptor)”, in assay [1], the Kd worked out at 0.17 nM, the koff is 0.00046 s⁻¹ and the kon was 2.8e+06 M⁻¹ s⁻¹. In assay [6], this substance had a percent of recovered protein bound and eluted of 20%; a percent of recovered protein in unbound fraction of 80%. Further, in assay [7], the percent of total applied bound to IgG-Sepharose was 14% and the percent of total applied in the wash (unbound) came out at 86%.

The Kd is a measure of binding affinity in units of concentration. The low end stands for tighter binding, the high end for weaker binding. By koff is commonly meant the first-order rate constant of dissociation. A high value points to a short-lived complex. Usually kon stands for the rate constant with which the complex forms. Lower therefore signals slow association.
